According to US20060035283A1 (CHILDREN S MEDICAL CENTER, published 2006):

B1: full-length mouse RasGRF1 (other, UniProt P27671 1-1262, looked up)
chain: MQKAIRLNDGHVVTLGLLAQKDGTRKGYLSKRSADNPKWQTKWFALLQNLLFYFESDSSPRPSGLYLLEGSICKRAPSPKRGTSSKESGEKQQHYFTVNFSNDSQKTLELRTEDAKDCDEWVAAIARASYKILATEHEALMQKYLHLLQVVETEKTVAKQLRQQLEDGEVEIERLKTEVTITNLIKDNDRIQSSNKAGSADDEDSDIKKIKKVQSFLRGWLCRRKWKNIIQDYIRSPHADSMRKRNQVVFSMLEAEAEYVQQLHILVNNFLRPLRMAASSKKPPITHDDVSSIFLNSETIMFLHQIFYQGLKARISSWPTLVLADLFDILLPMLNIYQEFVRNHQYSLQILAHCKQNRDFDKLLKQYEAKPDCEERTLETFLTYPMFQIPRYILTLHELLAHTPHEHVERNSLDYAKSKLEELSRIMHDEVSETENIRKNLAIERMITEGCEILLDTSQTFVRQGSLMQMSLSEKSKSSRGRLGSLSTKKEGERQCFLFSKHLIICTRGSGGKLHLTKNGVISLIDCTLLDEPENLDDEAKGAGPEIEHLEFKIGVEPKDSLPFTVILVASTRQEKAAWTSDIIQCVDNIRCNGLMMNAFEENSKVTVPQMIKSDASLYCDDVDIRFSKTMNSCKVLQIRYASVERLLERLTDLRFLSIDFLNTFLHSYRVFTNAMVVLDKLINIYRKPMSAIPARSLELLFSSSHNAKLLYGDAPKSPRASRKFSSPPPLAIGTSSPSRRRKLSLNIPIITGGKALELASLGCSSDSYANIHSPISPFGKTTLDTGKLCMASSLPKTPEEIDVPATIPEKPGELSASRKHSSDVLKEESEDDQNHSDEDNTEVSPVKSPPTPKSFLNRTITEFPFFNYNNGILMTTCRDLVDNNRSTLSATSAFAIATAGANEGPSNKEVFRRMSLANTGFSSDQRNIDKEFVIRRAATNRVLNVLRHWVTKHTQDFDTDDTLKYRVICFLEEVMHDPDLLTQERKAAANIIRTLTLEETTEQHSMLEEVILMTEGVKTEPFENHPALEIAEQLTLLDHLVFKSIPYEEFFGQGWMKAEKYERTPYIMKTTKHFNHVSNFIASEIIRNEDISARASAIEKWVAVADICRCLHNYNAVLEITSSINRSAIFRLKKTWLKVSKQTKSLLDKLQKLVSSDGRFKNLRESLRNCDPPCVPYLGMYLTDLVFIEEGTPNYTEDGLVNFSKMRMISHIIREIRQFQQTTYKIDPQPKVIQYLLDESFMLDEESLYESSLLIEPKLPT
notes: Full-length; also called in vitro translated RasGRF1; mouse RasGRF1 in pcDNA3

Tests used:
[1] = target: T1, GFP rat NR2A (expressed in HEK293T cells) (rat, UniProt Q00959 23-1464); assay: co-immunoprecipitation from co-transfected HEK293T cells
T1 construct: whole, on cells; not shown: GFP
T1 sequence (Q00959 23-1464): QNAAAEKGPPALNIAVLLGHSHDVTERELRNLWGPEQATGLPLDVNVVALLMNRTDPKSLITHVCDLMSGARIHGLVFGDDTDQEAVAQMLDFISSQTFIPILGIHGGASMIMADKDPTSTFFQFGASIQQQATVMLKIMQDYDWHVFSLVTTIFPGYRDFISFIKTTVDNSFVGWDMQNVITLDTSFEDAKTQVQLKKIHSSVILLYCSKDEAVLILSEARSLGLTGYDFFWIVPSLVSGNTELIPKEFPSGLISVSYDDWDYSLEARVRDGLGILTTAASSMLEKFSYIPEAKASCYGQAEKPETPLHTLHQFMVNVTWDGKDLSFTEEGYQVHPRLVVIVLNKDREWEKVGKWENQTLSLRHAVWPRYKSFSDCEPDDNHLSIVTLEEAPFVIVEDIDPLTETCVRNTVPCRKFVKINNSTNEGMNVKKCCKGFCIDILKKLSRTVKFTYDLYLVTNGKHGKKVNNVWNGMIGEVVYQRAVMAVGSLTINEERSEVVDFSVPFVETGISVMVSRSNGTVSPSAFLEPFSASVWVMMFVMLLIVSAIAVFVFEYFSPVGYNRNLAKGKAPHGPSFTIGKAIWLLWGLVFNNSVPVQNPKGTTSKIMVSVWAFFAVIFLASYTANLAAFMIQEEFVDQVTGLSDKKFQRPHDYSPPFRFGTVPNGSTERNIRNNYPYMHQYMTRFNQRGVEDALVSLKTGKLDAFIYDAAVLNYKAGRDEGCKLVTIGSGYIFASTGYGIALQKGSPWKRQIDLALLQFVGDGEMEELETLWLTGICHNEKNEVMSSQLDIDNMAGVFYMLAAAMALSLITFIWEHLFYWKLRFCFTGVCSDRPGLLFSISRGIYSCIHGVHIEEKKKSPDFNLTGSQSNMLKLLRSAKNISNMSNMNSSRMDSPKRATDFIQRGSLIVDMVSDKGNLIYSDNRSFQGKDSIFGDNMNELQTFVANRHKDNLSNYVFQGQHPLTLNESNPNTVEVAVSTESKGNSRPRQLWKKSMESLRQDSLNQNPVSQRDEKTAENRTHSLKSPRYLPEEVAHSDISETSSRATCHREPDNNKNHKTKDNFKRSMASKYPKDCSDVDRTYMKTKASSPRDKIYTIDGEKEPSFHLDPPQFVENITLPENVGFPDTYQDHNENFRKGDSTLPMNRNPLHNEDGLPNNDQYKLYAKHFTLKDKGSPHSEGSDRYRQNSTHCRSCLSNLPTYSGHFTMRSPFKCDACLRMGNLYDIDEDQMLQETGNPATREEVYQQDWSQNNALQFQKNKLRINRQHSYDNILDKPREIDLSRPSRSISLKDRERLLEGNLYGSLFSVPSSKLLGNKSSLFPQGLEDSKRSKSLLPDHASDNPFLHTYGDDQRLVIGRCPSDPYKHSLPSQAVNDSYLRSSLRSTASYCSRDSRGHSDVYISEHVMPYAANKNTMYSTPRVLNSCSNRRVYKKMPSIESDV
Description: Transfected cells were solubilized in lysis buffer (100 mM Tris-Cl [pH 8.5], 500 mM NaCl, 1% Triton X-100) supplemented with corn plete protease inhibitor (Roche) and immunoprecipitated with NR2B (Santa Cruz, sc-9057), NR1, or NR2A (Chemicon) antibody (5 μg/ml), washed with lysis buffer, separated on SDS gel, and blotted on PVDF. Blots were probed with anti-RasGRF1 (Santa Cruz) and the appropriate NR subunit antibody. 6- to 8-week-old rat brain P2 microsomes were isolated and solubilized as described (Luo, J., et al. (1997) Mol. Pharmacol. 51, 79-86). 80 μg of solubilized protein were immunoprecipitated with NR2B, RasGRF1, or pooled rabbit IgG, and immunoprecipitated proteins were probed on Western blot with RasGRF1 and NR2B antibodies. All immunoprecipitation experiments were only taken as valid if repeated 3-5 times with similar results. Routine negative controls with antigen pre-absorption were carried out for antibodies used in immunoprecipitation experiments. Also, all immunoprecipitating antibodies were tested for the cross-reactivity with in vitro translated co-immunoprecipitated molecules.

[2] = target: T2, in vitro translated full-length NR2B (Rattus norvegicus (Rat), UniProt Q00960 1-1482, limits assumed); assay: co-immunoprecipitation of in vitro translated proteins with anti-HA
T2 construct: Full-length, 35S-labelled, translated in vitro
T2 sequence (Q00960 other isoform, or with tags, fused parts or gaps limits assumed): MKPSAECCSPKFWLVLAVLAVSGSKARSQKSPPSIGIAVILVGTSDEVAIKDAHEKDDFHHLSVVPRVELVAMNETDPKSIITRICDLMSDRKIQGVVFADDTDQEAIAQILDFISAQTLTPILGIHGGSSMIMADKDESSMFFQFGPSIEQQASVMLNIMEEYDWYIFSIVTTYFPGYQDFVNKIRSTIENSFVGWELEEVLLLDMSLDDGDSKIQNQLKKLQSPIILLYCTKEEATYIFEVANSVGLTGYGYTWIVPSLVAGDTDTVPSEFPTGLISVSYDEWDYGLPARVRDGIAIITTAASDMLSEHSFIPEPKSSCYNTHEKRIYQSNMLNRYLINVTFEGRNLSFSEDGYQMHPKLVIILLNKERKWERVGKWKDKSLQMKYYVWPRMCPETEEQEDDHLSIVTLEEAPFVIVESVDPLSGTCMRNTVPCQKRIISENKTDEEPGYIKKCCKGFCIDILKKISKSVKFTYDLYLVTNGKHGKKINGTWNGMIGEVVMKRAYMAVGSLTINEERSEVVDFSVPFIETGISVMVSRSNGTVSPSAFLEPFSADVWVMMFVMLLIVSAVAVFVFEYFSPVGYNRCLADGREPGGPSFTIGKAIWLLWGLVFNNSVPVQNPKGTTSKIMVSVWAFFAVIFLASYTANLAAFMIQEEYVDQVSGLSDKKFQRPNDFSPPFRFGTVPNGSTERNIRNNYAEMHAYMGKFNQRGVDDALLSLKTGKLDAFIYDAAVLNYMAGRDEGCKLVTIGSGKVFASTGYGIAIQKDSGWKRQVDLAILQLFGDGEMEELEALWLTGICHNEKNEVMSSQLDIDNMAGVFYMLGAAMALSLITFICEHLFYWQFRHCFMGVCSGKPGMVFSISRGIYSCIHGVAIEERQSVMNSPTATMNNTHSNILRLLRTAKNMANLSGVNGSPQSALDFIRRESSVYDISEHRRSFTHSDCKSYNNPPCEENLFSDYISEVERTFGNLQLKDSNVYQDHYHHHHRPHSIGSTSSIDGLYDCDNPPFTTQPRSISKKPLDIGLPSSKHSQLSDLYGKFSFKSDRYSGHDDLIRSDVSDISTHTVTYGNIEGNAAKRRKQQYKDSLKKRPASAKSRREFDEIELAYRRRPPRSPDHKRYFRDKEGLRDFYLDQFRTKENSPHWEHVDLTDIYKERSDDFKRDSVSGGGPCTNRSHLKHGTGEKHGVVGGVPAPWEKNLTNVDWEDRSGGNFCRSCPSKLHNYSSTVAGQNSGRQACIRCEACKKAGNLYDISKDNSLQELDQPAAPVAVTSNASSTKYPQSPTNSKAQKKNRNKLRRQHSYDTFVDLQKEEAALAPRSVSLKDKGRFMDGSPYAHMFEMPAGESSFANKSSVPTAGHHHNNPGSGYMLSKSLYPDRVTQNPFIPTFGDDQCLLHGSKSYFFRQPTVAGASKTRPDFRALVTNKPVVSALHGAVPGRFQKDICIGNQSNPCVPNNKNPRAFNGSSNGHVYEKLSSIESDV
Description: For in vitro binding experiments, equimolar amounts of in vitro translated ³⁵S-labeled proteins (calculated from radioactivity of the excised protein band and cysteine content in the specific fragment) were incubated with a 3-fold molar excess of translated RasGRF1 for 30 min at 30° C., diluted with RIPA buffer, and immunoprecipitated with anti-HA-agarose (Santa Cruz). In competition experiments, RasGRF1 and NR2B were immunoprecipitated for 2 hr at 4° C. from solubilized rat brain microsomes in the presence of 10 μM NusA, 10 μM NusA-RasGRF1-BD, or 5 μM NusA-NR2B-BD.

[3] = target: B1; assay: co-immunoprecipitation of in vitro translated proteins with AU1 antibody

| Binder | binding result [2] | also measured |
| --- | --- | --- |
| B1 | – | binding result [1]: no binding |
| HA-tagged RasGRF1 fragment, amino acids 714-841 (other, In vitro translated, 35S-labelled; not shown: HA tag encoded by the 5' primer) RASRKFSSPPPLAIGTSSPVRRRKLSLNIPIITGGKALELASLGCPSDGYTNIHSPISPFGKTTLDTSKLCVASSLTRTPEEIDMTTLEESSGFRKPTSDILKEESDDDQSDVDDTEVSPPTPKSFRN | no binding | – |
| HA-tagged RasGRF1 fragment, amino acids 1-720 (other, In vitro translated, 35S-labelled; also called N-terminal portion of RasGRF1; not shown: HA tag encoded by the 5' primer) MQKAIRLNDGHVVSLGLLAQRDGTRKGYLSKRSSDNPKWQTKWFALLQNLLFYFESDSSSRPSGLYLLEGSICKRMPSPKRGTSSKESDKQHHYFTVNFSNDSQKSLELRTDDSKDCDEWVAAIARASYKILATEHEALMQKYLHLLQVVETEKTVAKQLRQQLEDGEVEIERLKAEIANLIKDNERIQSNQLVAPEDEDSDIKKIKKVQSFLRGWLCRRKWKNIIQDYIRSPHADSMRKRNQVVFSMLEAEAEYVQQLHILVNNFLRPLRMAASSKKPPITHDDVSSIFLNSETIMFLHQIFYQGLKARIASWPTLVLADLFDILLPMLNIYQEFVRNHQYSLQILAHCKQNRDFDKLLKQYEAKPDCEERTLETFLTYPMFQIPRYILTLHELLAHTPHEHVERNSLDYAKSKLEELSRVMHDEVSETENIRKNLAIERMITEGCEILLDTSQTFVRQGSLIQVPMSEKGKINKGRLGSLSLKKEGERQCFLFSKHLIICTRGSGSKLHLTKNGVISLIDCTLLDDPENMDDDGKGQEVDHLDFKIWVEPKDSPPFTVILVASSRQEKAAWTSDIIQCVDNIRCNGLMMNAFEENSKVTVPQMIKSDASLYCDDVDIRFSKTMNSCKVLQIRYASVERLLERLTDLRFLSIDFLNTFLHSYRVFTDAVVVLDKLISIYKKPITAIPARSLELLFSSSHNTKLLYGDAPKSPRASRKFS | no binding | – |
| HA-tagged RasGRF1 fragment, amino acids 835-913 (other, In vitro translated, 35S-labelled; not shown: HA tag encoded by the 5' primer) TPKSFRNRITQEFPLFNYNSGIMMTCRDLMDSNRSPLSATSAFAIATAGANESPANKEIYRRMSLANTGYSSDQRNIDK | no binding | – |
| AU1-tagged NR2B fragment, amino acids 1136-1310 (other, In vitro translated, 35S-labelled; also called distal portion of the bait; not shown: AU1 tag encoded by the 5' primer) QFRTKENSPHWEHVDLTDIYKERSDDFKRDSVSGGGPCTNRSHLKHGTGEKHGVVGGVPAPWEKNLTNVDWEDRSGGNFCRSCPSKLHNYSSTVAGQNSGRQACIRCEACKKAGNLYDISKDNSLQELDQPAAPVAVTSNASSTKYPQSPTNSKAQKKNRNKLRRQHSYDTFVDL | – | binding result [3]: no binding |
